B1: library; numbered along this chain (parent)
chain: MRKPRAAVGSGHRKQAASQEGRQKHAKNNSQAKPSACDGLARQPEEVVLQASVSSYHLFRDVAEVTAFRGSLLSWYDQEKRDLPWRRRAEDEMDLDRRAYAVWVSEVMLQQTQVATVINYYTGWMQKWPTLQDLASASLEEVNQLWAGLGYYSRGRRLQEGARKVVEELGGHMPRTAETLQQLLPGVGRYTAGAIASIAFGQATGVVDGNVARVLCRVRAIGADPSSTLVSQQLWGLAQQLVDPARPGDFNQAAMELGATVCTPQRPLCSQCPVESLCRARQRVEQEQLLASGSLSGSPDVEECAPNTGQCHLCLPPSEPWDQTLGVVNFPRKASRKPPREESSATCVLEQPGALGAQILLVQRPNSGLLAGLWEFPSVTWEPSEQLQRKALLQELQRWAGPLPATHLRHLGEVVHTFSHIKLTYQVYGLALEGQTPVTTVPPGARWLTQEEFHTAAVSTAMKKVFRVYQGQQPGTCMGSKRSQVSSPCSRKKPRMGQQVLDNFFRSHISTDAHSLNSAAQ

Variants of: B1
Assay: 8OG:A repair function score (normalized; synonymous = 0, nonsense = -1) (normalized log-likelihood score); higher = more repair activity (WT-like)
Conditions: with 8OG:A DNA repair reporter (GFP) in HEK-293 MUTYH KO cells
Experimental: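 Saturation mutagenesis (NNN codon scan) of the MUTYH cDNA (521-aa nuclear isoform NM_001048174.1 / NP_001041639), stably expressed under doxycycline induction in HEK-293 MUTYH knockout cells. Cells were co-transfected with an 8OG:A-bearing GFP repair reporter plus mCherry and sorted 72 h later into GFP+ and GFP− bins, three replicates per tile. The Rosace log2 enrichment (GFP+ vs GFP−) was converted per tile to a normalized function score with synonymous variants centered at 0 and nonsense variants (codons 1-471) at -1; low-abundance variants were removed.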

In order of rising “8OG:A repair function score” value:
1. MCKPRAAVGSGHRKQAASQEGRQKHAKNNSQAKPSACDGLARQPEEVVLQASVSSYHLFRDVAEVTAFRGSLLSWYDQEKRDLPWRRRAEDEMDLDRRAYAVWVSEVMLQQTQVATVINYYTGWMQKWPTLQDLASASLEEVNQLWAGLGYYSRGRRLQEGARKVVEELGGHMPRTAETLQQLLPGVGRYTAGAIASIAFGQATGVVDGNVARVLCRVRAIGADPSSTLVSQQLWGLAQQLVDPARPGDFNQAAMELGATVCTPQRPLCSQCPVESLCRARQRVEQEQLLASGSLSGSPDVEECAPNTGQCHLCLPPSEPWDQTLGVVNFPRKASRKPPREESSATCVLEQPGALGAQILLVQRPNSGLLAGLWEFPSVTWEPSEQLQRKALLQELQRWAGPLPATHLRHLGEVVHTFSHIKLTYQVYGLALEGQTPVTTVPPGARWLTQEEFHTAAVSTAMKKVFRVYQGQQPGTCMGSKRSQVSSPCSRKKPRMGQQVLDNFFRSHISTDAHSLNSAAQ [R2C]  -0.529
2. MMKPRAAVGSGHRKQAASQEGRQKHAKNNSQAKPSACDGLARQPEEVVLQASVSSYHLFRDVAEVTAFRGSLLSWYDQEKRDLPWRRRAEDEMDLDRRAYAVWVSEVMLQQTQVATVINYYTGWMQKWPTLQDLASASLEEVNQLWAGLGYYSRGRRLQEGARKVVEELGGHMPRTAETLQQLLPGVGRYTAGAIASIAFGQATGVVDGNVARVLCRVRAIGADPSSTLVSQQLWGLAQQLVDPARPGDFNQAAMELGATVCTPQRPLCSQCPVESLCRARQRVEQEQLLASGSLSGSPDVEECAPNTGQCHLCLPPSEPWDQTLGVVNFPRKASRKPPREESSATCVLEQPGALGAQILLVQRPNSGLLAGLWEFPSVTWEPSEQLQRKALLQELQRWAGPLPATHLRHLGEVVHTFSHIKLTYQVYGLALEGQTPVTTVPPGARWLTQEEFHTAAVSTAMKKVFRVYQGQQPGTCMGSKRSQVSSPCSRKKPRMGQQVLDNFFRSHISTDAHSLNSAAQ [R2M]  -0.169
3. MDKPRAAVGSGHRKQAASQEGRQKHAKNNSQAKPSACDGLARQPEEVVLQASVSSYHLFRDVAEVTAFRGSLLSWYDQEKRDLPWRRRAEDEMDLDRRAYAVWVSEVMLQQTQVATVINYYTGWMQKWPTLQDLASASLEEVNQLWAGLGYYSRGRRLQEGARKVVEELGGHMPRTAETLQQLLPGVGRYTAGAIASIAFGQATGVVDGNVARVLCRVRAIGADPSSTLVSQQLWGLAQQLVDPARPGDFNQAAMELGATVCTPQRPLCSQCPVESLCRARQRVEQEQLLASGSLSGSPDVEECAPNTGQCHLCLPPSEPWDQTLGVVNFPRKASRKPPREESSATCVLEQPGALGAQILLVQRPNSGLLAGLWEFPSVTWEPSEQLQRKALLQELQRWAGPLPATHLRHLGEVVHTFSHIKLTYQVYGLALEGQTPVTTVPPGARWLTQEEFHTAAVSTAMKKVFRVYQGQQPGTCMGSKRSQVSSPCSRKKPRMGQQVLDNFFRSHISTDAHSLNSAAQ [R2D]  -0.112
4. MLKPRAAVGSGHRKQAASQEGRQKHAKNNSQAKPSACDGLARQPEEVVLQASVSSYHLFRDVAEVTAFRGSLLSWYDQEKRDLPWRRRAEDEMDLDRRAYAVWVSEVMLQQTQVATVINYYTGWMQKWPTLQDLASASLEEVNQLWAGLGYYSRGRRLQEGARKVVEELGGHMPRTAETLQQLLPGVGRYTAGAIASIAFGQATGVVDGNVARVLCRVRAIGADPSSTLVSQQLWGLAQQLVDPARPGDFNQAAMELGATVCTPQRPLCSQCPVESLCRARQRVEQEQLLASGSLSGSPDVEECAPNTGQCHLCLPPSEPWDQTLGVVNFPRKASRKPPREESSATCVLEQPGALGAQILLVQRPNSGLLAGLWEFPSVTWEPSEQLQRKALLQELQRWAGPLPATHLRHLGEVVHTFSHIKLTYQVYGLALEGQTPVTTVPPGARWLTQEEFHTAAVSTAMKKVFRVYQGQQPGTCMGSKRSQVSSPCSRKKPRMGQQVLDNFFRSHISTDAHSLNSAAQ [R2L]  -0.084
5. MAKPRAAVGSGHRKQAASQEGRQKHAKNNSQAKPSACDGLARQPEEVVLQASVSSYHLFRDVAEVTAFRGSLLSWYDQEKRDLPWRRRAEDEMDLDRRAYAVWVSEVMLQQTQVATVINYYTGWMQKWPTLQDLASASLEEVNQLWAGLGYYSRGRRLQEGARKVVEELGGHMPRTAETLQQLLPGVGRYTAGAIASIAFGQATGVVDGNVARVLCRVRAIGADPSSTLVSQQLWGLAQQLVDPARPGDFNQAAMELGATVCTPQRPLCSQCPVESLCRARQRVEQEQLLASGSLSGSPDVEECAPNTGQCHLCLPPSEPWDQTLGVVNFPRKASRKPPREESSATCVLEQPGALGAQILLVQRPNSGLLAGLWEFPSVTWEPSEQLQRKALLQELQRWAGPLPATHLRHLGEVVHTFSHIKLTYQVYGLALEGQTPVTTVPPGARWLTQEEFHTAAVSTAMKKVFRVYQGQQPGTCMGSKRSQVSSPCSRKKPRMGQQVLDNFFRSHISTDAHSLNSAAQ [R2A]  -0.0711
6. MHKPRAAVGSGHRKQAASQEGRQKHAKNNSQAKPSACDGLARQPEEVVLQASVSSYHLFRDVAEVTAFRGSLLSWYDQEKRDLPWRRRAEDEMDLDRRAYAVWVSEVMLQQTQVATVINYYTGWMQKWPTLQDLASASLEEVNQLWAGLGYYSRGRRLQEGARKVVEELGGHMPRTAETLQQLLPGVGRYTAGAIASIAFGQATGVVDGNVARVLCRVRAIGADPSSTLVSQQLWGLAQQLVDPARPGDFNQAAMELGATVCTPQRPLCSQCPVESLCRARQRVEQEQLLASGSLSGSPDVEECAPNTGQCHLCLPPSEPWDQTLGVVNFPRKASRKPPREESSATCVLEQPGALGAQILLVQRPNSGLLAGLWEFPSVTWEPSEQLQRKALLQELQRWAGPLPATHLRHLGEVVHTFSHIKLTYQVYGLALEGQTPVTTVPPGARWLTQEEFHTAAVSTAMKKVFRVYQGQQPGTCMGSKRSQVSSPCSRKKPRMGQQVLDNFFRSHISTDAHSLNSAAQ [R2H]  -0.00678
7. MPKPRAAVGSGHRKQAASQEGRQKHAKNNSQAKPSACDGLARQPEEVVLQASVSSYHLFRDVAEVTAFRGSLLSWYDQEKRDLPWRRRAEDEMDLDRRAYAVWVSEVMLQQTQVATVINYYTGWMQKWPTLQDLASASLEEVNQLWAGLGYYSRGRRLQEGARKVVEELGGHMPRTAETLQQLLPGVGRYTAGAIASIAFGQATGVVDGNVARVLCRVRAIGADPSSTLVSQQLWGLAQQLVDPARPGDFNQAAMELGATVCTPQRPLCSQCPVESLCRARQRVEQEQLLASGSLSGSPDVEECAPNTGQCHLCLPPSEPWDQTLGVVNFPRKASRKPPREESSATCVLEQPGALGAQILLVQRPNSGLLAGLWEFPSVTWEPSEQLQRKALLQELQRWAGPLPATHLRHLGEVVHTFSHIKLTYQVYGLALEGQTPVTTVPPGARWLTQEEFHTAAVSTAMKKVFRVYQGQQPGTCMGSKRSQVSSPCSRKKPRMGQQVLDNFFRSHISTDAHSLNSAAQ [R2P]  -0.00444
8. MFKPRAAVGSGHRKQAASQEGRQKHAKNNSQAKPSACDGLARQPEEVVLQASVSSYHLFRDVAEVTAFRGSLLSWYDQEKRDLPWRRRAEDEMDLDRRAYAVWVSEVMLQQTQVATVINYYTGWMQKWPTLQDLASASLEEVNQLWAGLGYYSRGRRLQEGARKVVEELGGHMPRTAETLQQLLPGVGRYTAGAIASIAFGQATGVVDGNVARVLCRVRAIGADPSSTLVSQQLWGLAQQLVDPARPGDFNQAAMELGATVCTPQRPLCSQCPVESLCRARQRVEQEQLLASGSLSGSPDVEECAPNTGQCHLCLPPSEPWDQTLGVVNFPRKASRKPPREESSATCVLEQPGALGAQILLVQRPNSGLLAGLWEFPSVTWEPSEQLQRKALLQELQRWAGPLPATHLRHLGEVVHTFSHIKLTYQVYGLALEGQTPVTTVPPGARWLTQEEFHTAAVSTAMKKVFRVYQGQQPGTCMGSKRSQVSSPCSRKKPRMGQQVLDNFFRSHISTDAHSLNSAAQ [R2F]  0.0866
9. MNKPRAAVGSGHRKQAASQEGRQKHAKNNSQAKPSACDGLARQPEEVVLQASVSSYHLFRDVAEVTAFRGSLLSWYDQEKRDLPWRRRAEDEMDLDRRAYAVWVSEVMLQQTQVATVINYYTGWMQKWPTLQDLASASLEEVNQLWAGLGYYSRGRRLQEGARKVVEELGGHMPRTAETLQQLLPGVGRYTAGAIASIAFGQATGVVDGNVARVLCRVRAIGADPSSTLVSQQLWGLAQQLVDPARPGDFNQAAMELGATVCTPQRPLCSQCPVESLCRARQRVEQEQLLASGSLSGSPDVEECAPNTGQCHLCLPPSEPWDQTLGVVNFPRKASRKPPREESSATCVLEQPGALGAQILLVQRPNSGLLAGLWEFPSVTWEPSEQLQRKALLQELQRWAGPLPATHLRHLGEVVHTFSHIKLTYQVYGLALEGQTPVTTVPPGARWLTQEEFHTAAVSTAMKKVFRVYQGQQPGTCMGSKRSQVSSPCSRKKPRMGQQVLDNFFRSHISTDAHSLNSAAQ [R2N]  0.108
10. MGKPRAAVGSGHRKQAASQEGRQKHAKNNSQAKPSACDGLARQPEEVVLQASVSSYHLFRDVAEVTAFRGSLLSWYDQEKRDLPWRRRAEDEMDLDRRAYAVWVSEVMLQQTQVATVINYYTGWMQKWPTLQDLASASLEEVNQLWAGLGYYSRGRRLQEGARKVVEELGGHMPRTAETLQQLLPGVGRYTAGAIASIAFGQATGVVDGNVARVLCRVRAIGADPSSTLVSQQLWGLAQQLVDPARPGDFNQAAMELGATVCTPQRPLCSQCPVESLCRARQRVEQEQLLASGSLSGSPDVEECAPNTGQCHLCLPPSEPWDQTLGVVNFPRKASRKPPREESSATCVLEQPGALGAQILLVQRPNSGLLAGLWEFPSVTWEPSEQLQRKALLQELQRWAGPLPATHLRHLGEVVHTFSHIKLTYQVYGLALEGQTPVTTVPPGARWLTQEEFHTAAVSTAMKKVFRVYQGQQPGTCMGSKRSQVSSPCSRKKPRMGQQVLDNFFRSHISTDAHSLNSAAQ [R2G]  0.122
11. MIKPRAAVGSGHRKQAASQEGRQKHAKNNSQAKPSACDGLARQPEEVVLQASVSSYHLFRDVAEVTAFRGSLLSWYDQEKRDLPWRRRAEDEMDLDRRAYAVWVSEVMLQQTQVATVINYYTGWMQKWPTLQDLASASLEEVNQLWAGLGYYSRGRRLQEGARKVVEELGGHMPRTAETLQQLLPGVGRYTAGAIASIAFGQATGVVDGNVARVLCRVRAIGADPSSTLVSQQLWGLAQQLVDPARPGDFNQAAMELGATVCTPQRPLCSQCPVESLCRARQRVEQEQLLASGSLSGSPDVEECAPNTGQCHLCLPPSEPWDQTLGVVNFPRKASRKPPREESSATCVLEQPGALGAQILLVQRPNSGLLAGLWEFPSVTWEPSEQLQRKALLQELQRWAGPLPATHLRHLGEVVHTFSHIKLTYQVYGLALEGQTPVTTVPPGARWLTQEEFHTAAVSTAMKKVFRVYQGQQPGTCMGSKRSQVSSPCSRKKPRMGQQVLDNFFRSHISTDAHSLNSAAQ [R2I]  0.124
12. MKKPRAAVGSGHRKQAASQEGRQKHAKNNSQAKPSACDGLARQPEEVVLQASVSSYHLFRDVAEVTAFRGSLLSWYDQEKRDLPWRRRAEDEMDLDRRAYAVWVSEVMLQQTQVATVINYYTGWMQKWPTLQDLASASLEEVNQLWAGLGYYSRGRRLQEGARKVVEELGGHMPRTAETLQQLLPGVGRYTAGAIASIAFGQATGVVDGNVARVLCRVRAIGADPSSTLVSQQLWGLAQQLVDPARPGDFNQAAMELGATVCTPQRPLCSQCPVESLCRARQRVEQEQLLASGSLSGSPDVEECAPNTGQCHLCLPPSEPWDQTLGVVNFPRKASRKPPREESSATCVLEQPGALGAQILLVQRPNSGLLAGLWEFPSVTWEPSEQLQRKALLQELQRWAGPLPATHLRHLGEVVHTFSHIKLTYQVYGLALEGQTPVTTVPPGARWLTQEEFHTAAVSTAMKKVFRVYQGQQPGTCMGSKRSQVSSPCSRKKPRMGQQVLDNFFRSHISTDAHSLNSAAQ [R2K]  0.125

Source: the supplement of paper PMC11908140
